The series is described as follows: protein stability index of a GFP-peptide fusion (yeast GPS) (PSI 1-4); higher = more stable; sorted into four equal gates, so the index is relative within each strain. In outline: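 Mid-log yeast cultures in leucine-free medium, carrying a pooled plasmid library, were sorted into four equal gates by their GFP/Cherry fluorescence ratio. Each plasmid expressed Cherry along with GFP fused upstream of a tiled 17-residue yeast protein peptide. Plasmids recovered from each gate were PCR-amplified and Illumina-sequenced, with reads assigned to strains by barcodes. The protein stability index was obtained by summing each gate's read frequency weighted by its gate number.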

± gives the uncertainty stated by the source.

IRTQVNTGGESVVKKED [RGR1]: the protein stability index is, setting by setting: (doa10∆) 3.32 ± 0.18; (pdr5∆) 3.5 ± 0.093; (san1∆) 3.41 ± 0.098; (ubr1∆) 3.4 ± 0.088.

LLENPNCFFDVIVPQIV [DIS3]: the protein stability index is 3.23 ± 0.13 (doa10∆), 3.12 ± 0.12 (pdr5∆), 2.99 ± 0.065 (san1∆) and 2.36 ± 0.095 (ubr1∆).

Regarding SNFADSADYEILYEIRA [YDL116W/NUP84], the protein stability index by setting is: (doa10∆) 1.83 ± 0.081; (pdr5∆) 1.61 ± 0.097; (san1∆) 2.42 ± 0.19; (ubr1∆) 1.71 ± 0.099.

Turning to NIERKQTRKEYNTSILE [SIN4], the protein stability index is 3.11 ± 0.13 (doa10∆), 2.94 ± 0.062 (pdr5∆), 3.05 ± 0.081 (san1∆) and 3.23 ± 0.082 (ubr1∆).

With MDWLDNWGRKEHDLLRQ [ITC1], the protein stability index by setting is: (doa10∆) 3.22 ± 0.19; (pdr5∆) 3.33 ± 0.26; (san1∆) 3.48 ± 0.13.

Sequence DLPISSTDNEAITISNS [SMC1] yielded a protein stability index (doa10∆) of 2.8 ± 0.079, a protein stability index (pdr5∆) of 2.89 ± 0.093, a protein stability index (san1∆) of 2.7 ± 0.054 and a protein stability index (ubr1∆) of 2.91 ± 0.059.

Consider LRLKPGRKYTTLGKLST [RPL16B], for which the protein stability index (doa10∆) was 2.69 ± 0.057, the protein stability index (pdr5∆) came out at 2.64 ± 0.062, the protein stability index (san1∆) is 3.03 ± 0.036 and the protein stability index (ubr1∆) was determined as 2.97 ± 0.037.

Regarding DVEVDDDFTNELKAELD [SEM1], the protein stability index was 3.25 ± 0.13 (doa10∆), 3.55 ± 0.11 (pdr5∆), 3.54 ± 0.085 (san1∆) and 3.36 ± 0.056 (ubr1∆).

Take ELFKGYLADDIDADSLE [RPL5]: the protein stability index runs as follows: (doa10∆) 3.02 ± 0.086; (pdr5∆) 3.21 ± 0.076; (san1∆) 3.23 ± 0.064; (ubr1∆) 3.17 ± 0.087.

DLDETTQTFNGSIFTHE [YML031W/NDC1] displayed a protein stability index (doa10∆) of 2.96 ± 0.05, a protein stability index (pdr5∆) of 2.85 ± 0.037, a protein stability index (san1∆) of 2.85 ± 0.038 and a protein stability index (ubr1∆) of 2.92 ± 0.033.

Take ANKEKKRAEKAARKAEK [RPL24B]: the protein stability index is, setting by setting: (doa10∆) 3.34 ± 0.095; (pdr5∆) 3.36 ± 0.082; (san1∆) 3.58 ± 0.066; (ubr1∆) 3.52 ± 0.078.

With NISNAKLANFFSKKGNE [YAR002W/NUP60], the protein stability index by setting is: (doa10∆) 2.83 ± 0.092; (pdr5∆) 3.05 ± 0.062; (san1∆) 2.88 ± 0.07; (ubr1∆) 2.33 ± 0.079.

With LMCLSSKYCEKSLPLLI [YCS4], the protein stability index reads like this: (doa10∆) 2.45 ± 0.1; (pdr5∆) 2.71 ± 0.076; (san1∆) 2.39 ± 0.089; (ubr1∆) 2.39 ± 0.052.

Consider GTSKYLINGHRAPQQSV [SMC2], for which the protein stability index runs as follows: (doa10∆) 2.13 ± 0.054; (pdr5∆) 2.36 ± 0.047; (san1∆) 2.27 ± 0.076; (ubr1∆) 2.22 ± 0.052.

FTDENTIVLSLNVKCTR [RPC40] registered a protein stability index (doa10∆) of 3.44 ± 0.14, a protein stability index (pdr5∆) of 3.61 ± 0.091, a protein stability index (san1∆) of 2.96 ± 0.17 and a protein stability index (ubr1∆) of 3.46 ± 0.091.

As for LKLDKIIHVLTTMFENT [RGR1], the protein stability index runs as follows: (doa10∆) 2.07 ± 0.049; (pdr5∆) 2.43 ± 0.069; (san1∆) 2.39 ± 0.075; (ubr1∆) 2.73 ± 0.044.

With KSSIEKDPSPEILVLYN [SIN4], the protein stability index came out at 2.91 ± 0.05 (doa10∆), 2.9 ± 0.055 (pdr5∆), 2.91 ± 0.045 (san1∆) and 2.82 ± 0.043 (ubr1∆).

Regarding KNEPDYSKAKYPDLQPF [CDC53], the protein stability index (doa10∆) is 2.35 ± 0.086, the protein stability index (pdr5∆) was 2.58 ± 0.089, the protein stability index (san1∆) turned out to be 2.06 ± 0.13 and the protein stability index (ubr1∆) was found to be 2.5 ± 0.085.

With FNPQDTEENIKGETNSE [RRP45], the protein stability index is, setting by setting: (doa10∆) 3.36 ± 0.26; (pdr5∆) 3.19 ± 0.14; (san1∆) 3.22 ± 0.19; (ubr1∆) 3.12 ± 0.18.

Turning to GPSSVHNAKNGTLDKNS [SNF2], the protein stability index is, setting by setting: (doa10∆) 2.66 ± 0.22; (pdr5∆) 3.03 ± 0.22; (ubr1∆) 2.74 ± 0.17.

For the sequence LSKIKFPESIWKDFTVE [YCG1], the protein stability index reads like this: (doa10∆) 2.59 ± 0.049; (pdr5∆) 1.89 ± 0.04; (san1∆) 1.87 ± 0.06; (ubr1∆) 2 ± 0.03.

LREYLNLPEHIVPGTYI [RPS10A]: the protein stability index is, setting by setting: (doa10∆) 3.08 ± 0.078; (pdr5∆) 3.08 ± 0.064; (san1∆) 2.82 ± 0.056; (ubr1∆) 2.75 ± 0.059.

As to LSEDVNLETLVTTKDDL [RPT2], the protein stability index runs as follows: (doa10∆) 3.01 ± 0.13; (pdr5∆) 2.87 ± 0.17; (san1∆) 2.57 ± 0.15; (ubr1∆) 2.89 ± 0.096.

For the sequence FGRKKRKGGPATAEKLP [RPT2], the protein stability index was 3.56 ± 0.089 (doa10∆), 3.28 ± 0.12 (pdr5∆), 3.24 ± 0.075 (san1∆) and 3.34 ± 0.11 (ubr1∆).

KLIAAAEDGSRSTKDMI [SNF6] registered a protein stability index (doa10∆) of 3.54 ± 0.15, a protein stability index (pdr5∆) of 3.69 ± 0.23, a protein stability index (san1∆) of 3.44 ± 0.14 and a protein stability index (ubr1∆) of 3.54 ± 0.087.

The record behind these values is the supplement of paper PMC9732359.
